In patent US20230256092A1, “COMBINED USE OF ANTI-CCR8 ANTIBODY AND CHEMOTHERAPEUTIC AGENT” (Shionogi & Co., Ltd., priority 2020, published 2023):
Changes are numbered by the printed parent chain. In names and notes the source's numbering stands. Values belong to the binder of their own block, whether it stands above or below them.

Biological target: human CCR8 (human) (UniProt P51685)
Test: cell-based or functional assay

- IC50 ratio (WT IC50/mutant IC50): 0.17
B1: h10A11 (IGKV4-1/IGHV3-73 T31A) (antibody, name in Kabat numbering, V domains shown)
VH: EVQLVESGGGLVQPGGSLKLSCAASGFAFNAYALYWVRQASGKGLEWVGRIRSKSNNYATYYADSVKDRFTISRDDSKNTAYLQMNSLKTEDTAVYYCTRARFYYSDYGYAMDYWGQGTLVTVSS
VL: DIVMTQSPDSLAVSLGERATINCRSSKSLLHSNGNTYLYWYQQKPGQPPKLLIYRMSNLASGVPDRFSGSGSGTDFTLTISSLQAEDVAVYYCMQHLEYPLTFGQGTKLEIKR

- IC50 ratio (WT IC50/mutant IC50): 0.49
B2: h10A11 (IGKV4-1/IGHV3-73 T57S) (antibody, name in Kabat numbering, V domains shown)
VH: B1 VH with A31T, T60S
VL: B1 VL

- IC50 ratio (WT IC50/mutant IC50): 0.44
B12: h10A11 (IGKV4-1/IGHV3-73 Y32F) (antibody, name in Kabat numbering, V domains shown)
VH: B1 VH with A31T, Y32F
VL: B1 VL

- IC50 (n.d. = IC50 of the mutant is 10 nM or more): > 10 nM
B13: h10A11 (IGKV4-1/IGHV3-73 Y35F) (antibody, name in Kabat numbering, V domains shown)
VH: B1 VH with A31T, Y35F
VL: B1 VL

- IC50 ratio (WT IC50/mutant IC50): 0.8
B15: h10A11 (IGKV4-1/IGHV3-73 Y99F) (antibody, name in Kabat numbering, V domains shown)
VH: B1 VH with A31T, Y105F
VL: B1 VL

- IC50 ratio (WT IC50/mutant IC50): 0.56
B18: h10A11 (IGKV4-1/IGHV3-73 V63L) (antibody, name in Kabat numbering, V domains shown)
VH: B1 VH with A31T, V66L
VL: B1 VL

- IC50 ratio (WT IC50/mutant IC50): 0.55
B19: h10A11 (IGKV4-1/IGHV3-73 Y100dF) (antibody, name in Kabat numbering, V domains shown)
VH: B1 VH with A31T, Y110F
VL: B1 VL

- IC50 ratio (WT IC50/mutant IC50): 0.47
B22: h10A11 (IGKV4-1/IGHV3-73 Y55F) (antibody, name in Kabat numbering, V domains shown)
VH: B1 VH with A31T, Y58F
VL: B1 VL

- IC50 ratio (WT IC50/mutant IC50): 0.75
B26: h10A11 (IGKV4-1/IGHV3-73 Y100bF) (antibody, name in Kabat numbering, V domains shown)
VH: B1 VH with A31T, Y108F
VL: B1 VL

- IC50 ratio (WT IC50/mutant IC50): 0.07
B27: h10A11 (IGKV4-1/IGHV3-73 Y98F) (antibody, name in Kabat numbering, V domains shown)
VH: B1 VH with A31T, Y104F
VL: B1 VL

- IC50 ratio (WT IC50/mutant IC50): 0.03
B33: h10A11 (IGKV4-1/IGHV3-73 Y59F) (antibody, name in Kabat numbering, V domains shown)
VH: B1 VH with A31T, Y62F
VL: B1 VL

- IC50 ratio (WT IC50/mutant IC50): 0.5
B34: h10A11 (IGKV4-1/IGHV3-73 Y58F) (antibody, name in Kabat numbering, V domains shown)
VH: B1 VH with A31T, Y61F
VL: B1 VL

- IC50 ratio (WT IC50/mutant IC50): 0.99
B35: h10A11 (IGKV4-1/IGHV3-73 Y102F) (antibody, name in Kabat numbering, V domains shown)
VH: B1 VH with A31T, Y114F
VL: B1 VL

The remaining lines, values behind:

B3: h10A11 (IGKV4-1/IGHV3-73 R96K) (antibody, name in Kabat numbering, V domains shown)
VH: B1 VH with A31T, R102K
VL: B1 VL
- IC50 (n.d. = IC50 of the mutant is 10 nM or more): > 10 nM

B4: h10A11 (IGKV4-1/IGHV3-73 K52bR) (antibody, name in Kabat numbering, V domains shown)
VH: B1 VH with A31T, K54R
VL: B1 VL
- IC50 ratio (WT IC50/mutant IC50): 0.47

B5: h10A11 (IGKV4-1/IGHV3-73 N53Q) (antibody, name in Kabat numbering, V domains shown)
VH: B1 VH with A31T, N56Q
VL: B1 VL
- IC50 ratio (WT IC50/mutant IC50): 0.03

B6: h10A11 (IGKV4-1/IGHV3-73 A56V) (antibody, name in Kabat numbering, V domains shown)
VH: B1 VH with A31T, A59V
VL: B1 VL
- IC50 ratio (WT IC50/mutant IC50): 0.55

B7: h10A11 (IGKV4-1/IGHV3-73 K64R) (antibody, name in Kabat numbering, V domains shown)
VH: B1 VH with A31T, K67R
VL: B1 VL
- IC50 ratio (WT IC50/mutant IC50): 0.54

B8: h10A11 (IGKV4-1/IGHV3-73 S100T) (antibody, name in Kabat numbering, V domains shown)
VH: B1 VH with A31T, S106T
VL: B1 VL
- IC50 ratio (WT IC50/mutant IC50): 0.64

B9: h10A11 (IGKV4-1/IGHV3-73 D100aE) (antibody, name in Kabat numbering, V domains shown)
VH: B1 VH with A31T, D107E
VL: B1 VL
- IC50 ratio (WT IC50/mutant IC50): 0.3

B10: h10A11 (IGKV4-1/IGHV3-73 F97L) (antibody, name in Kabat numbering, V domains shown)
VH: B1 VH with A31T, F103L
VL: B1 VL
- IC50 (n.d. = IC50 of the mutant is 10 nM or more): > 10 nM

B11: h10A11 (IGKV4-1/IGHV3-73 R52K) (antibody, name in Kabat numbering, V domains shown)
VH: B1 VH with A31T, R52K
VL: B1 VL
- IC50 (n.d. = IC50 of the mutant is 10 nM or more): > 10 nM

B14: h10A11 (IGKV4-1/IGHV3-73 S52aT) (antibody, name in Kabat numbering, V domains shown)
VH: B1 VH with A31T, S53T
VL: B1 VL
- IC50 ratio (WT IC50/mutant IC50): 0.22

B16: h10A11 (IGKV4-1/IGHV3-73 A60V) (antibody, name in Kabat numbering, V domains shown)
VH: B1 VH with A31T, A63V
VL: B1 VL
- IC50 ratio (WT IC50/mutant IC50): 0.67

B17: h10A11 (IGKV4-1/IGHV3-73 M100fL) (antibody, name in Kabat numbering, V domains shown)
VH: B1 VH with A31T, M112L
VL: B1 VL
- IC50 ratio (WT IC50/mutant IC50): 0.72

B20: h10A11 (IGKV4-1/IGHV3-73 D101E) (antibody, name in Kabat numbering, V domains shown)
VH: B1 VH with A31T, D113E
VL: B1 VL
- IC50 (n.d. = IC50 of the mutant is 10 nM or more): > 10 nM

B21: h10A11 (IGKV4-1/IGHV3-73 D65E) (antibody, name in Kabat numbering, V domains shown)
VH: B1 VH with A31T, D68E
VL: B1 VL
- IC50 ratio (WT IC50/mutant IC50): 1.3

B23: h10A11 (IGKV4-1/IGHV3-73 S62T) (antibody, name in Kabat numbering, V domains shown)
VH: B1 VH with A31T, S65T
VL: B1 VL
- IC50 ratio (WT IC50/mutant IC50): 1.6

B24: h10A11 (IGKV4-1/IGHV3-73 R50K) (antibody, name in Kabat numbering, V domains shown)
VH: B1 VH with A31T, R50K
VL: B1 VL
- IC50 ratio (WT IC50/mutant IC50): 0.12

B25: h10A11 (IGKV4-1/IGHV3-73 A100eV) (antibody, name in Kabat numbering, V domains shown)
VH: B1 VH with A31T, A111V
VL: B1 VL
- IC50 ratio (WT IC50/mutant IC50): 0.49

B28: h10A11 (IGKV4-1/IGHV3-73 D61E) (antibody, name in Kabat numbering, V domains shown)
VH: B1 VH with A31T, D64E
VL: B1 VL
- IC50 ratio (WT IC50/mutant IC50): 0.25

B29: h10A11 (IGKV4-1/IGHV3-73 A33V) (antibody, name in Kabat numbering, V domains shown)
VH: B1 VH with A31T, A33V
VL: B1 VL
- IC50 (n.d. = IC50 of the mutant is 10 nM or more): > 10 nM

B30: h10A11 (IGKV4-1/IGHV3-73 L34I) (antibody, name in Kabat numbering, V domains shown)
VH: B1 VH with A31T, L34I
VL: B1 VL
- IC50 ratio (WT IC50/mutant IC50): 0.43

B31: h10A11 (IGKV4-1/IGHV3-73 S52cT) (antibody, name in Kabat numbering, V domains shown)
VH: B1 VH with A31T, S55T
VL: B1 VL
- IC50 ratio (WT IC50/mutant IC50): 0.53

B32: h10A11 (IGKV4-1/IGHV3-73 G100cA) (antibody, name in Kabat numbering, V domains shown)
VH: B1 VH with A31T, G109A
VL: B1 VL
- IC50 ratio (WT IC50/mutant IC50): 0.07

B36: h10A11 (IGKV4-1/IGHV3-73 I51L) (antibody, name in Kabat numbering, V domains shown)
VH: B1 VH with A31T, I51L
VL: B1 VL
- IC50 ratio (WT IC50/mutant IC50): 0.22
